Reference: patent publication US9249224B2 (RINAT NEUROSCIENCE CORP., priority 2011, dated 2016)
Structures can show the parent of a compound that is named as a salt. Marks after values point to notes of the source that are not given here.

Tests used:
CT26 tumors = test: CT26 syngeneic mouse model of colorectal cancer, tumor volume and weight; type: in vivo; details: day 28, BALB/c mice bearing CT26 tumors, Ab11 10 mg/kg, irinotecan 100 mg/kg IP, hydrochloride
Description: The CT26 cell line was used as a syngeneic mouse model of colorectal cancer. Mice were injected with tumor cells and dosed with the Ab11 antibody alone or in combination with iriniotecan.
BALB/c mice (BALB/cAnNCrl) were obtained from Charles River (Hollister, Calif., USA) and maintained in the animal facility at Rinat. […] The mice were housed in microisolators (filter top cages) under pathogen-free conditions with a 12-h light/12-h dark schedule and fed autoclaved standard chow and water throughout the experiment.
Cells were harvested by brief incubation with Accutase (A6964-100ML) (Sigma™ Aldrich, Inc., St. Louis, Mo., USA) and washed in new medium for counting. […]
Mice were dose intraperitoneally (IP) every second to third day. Tumor volume and body weight were measured at least twice a week. […]
The tumors were measured every 2-4 days with a digital caliper (mm). Baseline tumor volumes were calculated using the following formula: V=d2^2×(d½) where d1 was the longest diameter of the tumor and d2 was the perpendicular to d1. At the end of the study, while the study was still blinded, outliers were determined and excluded from all four groups. Tumors that were 3× standard error of the mean < mean and 3× standard error of the mean > mean on all days after day 14 (days 18, 22, 25, and 28) were determined outliers. Tumor weight at the end of the study was also measured.

cyno GHR = test: STAT5 phosphorylation in vitro assay, cyno GHR-transfected HEK293 cells; type: cell-based, cynomolgus monkey; details: for fluorescent signal ave (phospho-STAT5): Table 8, cyno GHR-transfected cells
Description: This Example illustrates the effect of GHR antibodies in an in vitro STAT5 phosphorylation assay. In this Example, the ability of GHR antibodies to block GHR downstream signaling was tested in vitro using human GHR overexpressing cells and cyno GHR overexpressing cells.
GHR antagonist antibody Ab13 was tested for its ability to block STAT5 in an in vitro assay. HEK293 cells were transiently transfected with either DNA encoding full-length human GHR (SEQ ID NO: 140) or DNA encoding full-length cyno GHR (SEQ ID NO: 141). Cells were cultured in freestyle media for approximately 60 hours before testing. Cells were washed with DPBS (Dulbecco's Phosphate-Buffered Saline) and resuspended in Freestyle media, then counted using a hemocytometer. 1×10^6 cells were seeded per well in 6-well plates in 2 mls of Freestyle media. Cells were incubated for 2 hours at 37° C., then treated with 5, 50, or 500 nM Ab13 antibody in media. Cells were incubated at 37° C. with gentle mixing for 5 min with antibodies. 4.5 nM GH (Genotropin) was then added to all but control wells. Cells were incubated with GH at 37° C. with gentle mixing for 10 minutes.
Following incubation with GH, 2 ml of ice cold DPBS with 1× protease inhibitor cocktail (Roche) and 1 mM sodium orthovanadate (BioLabs) were added to each well and the plates were placed on ice. Cells were transferred to 5 ml tubes and spun down to create a cell pellet and the wash buffer was aspirated, leaving the cell pellet.
Reagents from Millipore™ MILLIPLEX® MAP Cell Signaling Buffer and Detection Kit (cat. #48-602) were used to lyse and treat the cell pellets. Millipore lysis buffer with 1× protease inhibitor cocktail and 1 mM sodium orthovanadate was added to each pellet at a volume of 200 ul/pellet. Cells were vortexed and incubated for 15 minutes at room temp with occasional vortexing. Millipore Assay buffer 2 with 1× protease inhibitor cocktail and 1 mM sodium orthovanadate was then added to the lysates at 300 ul/well.
Millipore™ MILLIPLEX® MAP Phospho STAT5N8 (Tyr694/699) MAPmate™ beads (Cat. #46-641) were resuspended in Assay Buffer 2 (from Millipore™ kit cat. #48-602) and loaded on a 96-well filter plate (provided in kit) at 25 ul/well, 25 ul/well of sample lysate was added to the wells and the beads and samples were incubated overnight at 4′C with shaking in the dark.
The liquid was then aspirated using a vacuum manifold and the remaining beads were washed using Millipore™ kit wash buffer. 25 ul Millipore™ kit detection antibody was added and incubated for 1 hour at room temperature with shaking in the dark. The detection antibody was vacuumed through and 25 ul kit streptavidin—Phycoerythrin was added and incubated in the dark for 15 min with shaking. 25 ul kit amplification buffer was then added and incubated for 15 min with shaking in the dark. The liquid was aspirated using a vacuum manifold, and the beads were resuspended in 150 ul kit assay buffer 2 and mixed on a shaker for 5 minutes before reading the plate.
The plate was read using a Luminex™ 200 instrument and fluorescent signal emitted from the samples was measured, The results of the STAT5 assay are shown in Tables 5 and 6. “Ave” indicates the average fluorescent signal, and “SEM” indicates the standard error of the mean.
Antibodies SS3 and SS1 (hIgG2Δa) were tested using a STAT5 phosphorylation assay. For the STAT5 assay, full-length human GHR overexpressing HEK293 cells or full-length cyno GHR-overexpressing HEK293 cells were cultured, counted by automated cell counter, and seeded in warm freestyle media in 12-well plates (5×10^5 cells/well in 1 ml media). Cells were allowed to settle for 3 hours at 37° C. then treated with 2.5, 5, 50, or 500 nM of SS1 or SS3 in media. […] Cells were incubated with GH at 37° C. with gentle mixing for 10 minutes.
Reagents from Millipore™ MILLIPLEX® MAP Cell Signaling Buffer and Detection Kit (cat, #48-602) were used to lyse and treat the cell pellets. […]

human GHR = biological target: T1, human GHR (Homo sapiens, UniProt P10912, I544L); test: STAT5 phosphorylation in vitro assay, human GHR-transfected HEK293 cells; type: cell-based; details: for fluorescent signal ave (phospho-STAT5): Table 7, human GHR-transfected cells
T1 construct: expressed in transfected cells; host or cells: HEK293
T1 sequence (P10912 19-638 I544L): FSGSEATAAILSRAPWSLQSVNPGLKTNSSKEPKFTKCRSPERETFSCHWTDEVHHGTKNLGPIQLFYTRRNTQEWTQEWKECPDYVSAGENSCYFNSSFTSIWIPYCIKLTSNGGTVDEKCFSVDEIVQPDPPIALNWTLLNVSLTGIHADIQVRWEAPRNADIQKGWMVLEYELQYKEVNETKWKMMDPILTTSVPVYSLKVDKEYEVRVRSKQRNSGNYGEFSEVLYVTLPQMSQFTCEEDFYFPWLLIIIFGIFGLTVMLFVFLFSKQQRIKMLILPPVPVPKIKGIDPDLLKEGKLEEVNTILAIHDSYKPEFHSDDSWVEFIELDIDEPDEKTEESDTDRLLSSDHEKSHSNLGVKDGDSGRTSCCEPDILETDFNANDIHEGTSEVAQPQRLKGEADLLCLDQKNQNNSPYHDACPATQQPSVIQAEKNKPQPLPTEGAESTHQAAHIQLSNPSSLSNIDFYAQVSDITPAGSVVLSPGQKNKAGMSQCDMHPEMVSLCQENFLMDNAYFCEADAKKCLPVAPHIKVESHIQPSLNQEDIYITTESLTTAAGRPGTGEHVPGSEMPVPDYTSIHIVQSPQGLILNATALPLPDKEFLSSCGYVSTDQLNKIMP
Description: This Example illustrates the effect of GHR antibodies in an in vitro STAT5 phosphorylation assay. In this Example, the ability of GHR antibodies to block GHR downstream signaling was tested in vitro using human GHR overexpressing cells and cyno GHR overexpressing cells. […]
Antibodies SS3 and SS1 (hIgG2Δa) were tested using a STAT5 phosphorylation assay. For the STAT5 assay, full-length human GHR overexpressing HEK293 cells or full-length cyno GHR-overexpressing HEK293 cells were cultured, counted by automated cell counter, and seeded in warm freestyle media in 12-well plates (5×10^5 cells/well in 1 ml media). Cells were allowed to settle for 3 hours at 37° C. then treated with 2.5, 5, 50, or 500 nM of SS1 or SS3 in media.
Millipore™ lysis buffer with 1× protease inhibitor cocktail and sodium orthovanadate was added to each pellet at a volume of 100 ul/pellet Cells were vortexed and incubated for 15 minutes at room temp with occasional vortexing, Millipore™ Assay buffer 2 with 1× protease inhibitor cocktail and 1 mM sodium orthovanadate was then added to the lysates at 200 ul/well.
25 ul/well of sample lysate was added to the wells and the beads and samples were incubated overnight at 4′C with shaking in the dark. […]
The plate was read using a Luminex 200 instrument and florescent signal emitted from the samples was measured.

Chain of cyno GHR (as listed by the source): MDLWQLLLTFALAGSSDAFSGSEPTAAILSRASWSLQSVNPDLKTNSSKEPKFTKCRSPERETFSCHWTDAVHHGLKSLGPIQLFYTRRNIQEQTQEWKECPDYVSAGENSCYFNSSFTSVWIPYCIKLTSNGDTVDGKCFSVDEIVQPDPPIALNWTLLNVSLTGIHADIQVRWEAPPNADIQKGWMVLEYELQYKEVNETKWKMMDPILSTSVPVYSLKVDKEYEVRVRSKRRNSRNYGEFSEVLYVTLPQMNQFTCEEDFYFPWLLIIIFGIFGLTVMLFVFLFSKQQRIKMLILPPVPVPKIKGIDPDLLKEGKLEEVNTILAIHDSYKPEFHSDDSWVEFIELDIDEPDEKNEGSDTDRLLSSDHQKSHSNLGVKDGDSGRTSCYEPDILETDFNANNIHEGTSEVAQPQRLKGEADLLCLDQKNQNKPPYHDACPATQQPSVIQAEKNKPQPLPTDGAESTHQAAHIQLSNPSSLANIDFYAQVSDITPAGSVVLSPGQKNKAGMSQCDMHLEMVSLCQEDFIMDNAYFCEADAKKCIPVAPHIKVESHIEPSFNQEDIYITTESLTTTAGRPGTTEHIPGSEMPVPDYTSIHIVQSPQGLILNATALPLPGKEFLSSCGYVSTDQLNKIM

Molecule: CCc1c2c(nc3ccc(OC(=O)N4CCC(N5CCCCC5)CC4)cc13)-c1cc3c(c(=O)n1C2)COC(=O)[C@]3(O)CC [Irinotecan, Irinotecan hydrochloride]
- Tumor weight (in grams), mean (CT26 tumors): 1.2** g
- Tumor weight (in grams), mean (CT26 tumors; listed as irinotecan): 1.2 g

Molecule: GH: growth hormone, added at 4.5 nM to stimulate STAT5 signaling in GHR-transfected cells [reference compound]
- fluorescent signal Ave (phospho-STAT5) (cyno GHR; Table 6, cyno GHR-transfected cells, 4.5 nM GH alone): 562
- fluorescent signal ave (phospho-STAT5) (cyno GHR; 4.5 nM GH alone): 847

B1: SS3: humanized GHR antagonist antibody; VL SEQ ID NO: 9, VH SEQ ID NO: 10 (antibody, V domains shown)
VH: EVQLVESGGGLVKPGGSLRLSCAASGFTFSDAWMDWVRQAPGKGLEWVAEIRSKANNHATYYAESVKGRFTISRDDSKNTLYLQMNSLKTEDTAVYYCTLFRDYWGQGTLVTVSS
VL: EIVLTQSPGTLSLSPGERATLSCTATSSVSSSYLNWYQQKPGQAPRLLIYSTSNLASGIPDRFSGSGSGTDFTLTISRLEPEDFAVYYCHQYHRFTPTFGGGTKVEIK
modifications: Humanized and/or affinity matured antibody sequence
- fluorescent signal ave (phospho-STAT5) (human GHR; 2.5 nM antibody + 4.5 nM GH): 100
- fluorescent signal ave (phospho-STAT5) (human GHR; 5 nM antibody + 4.5 nM GH): 48
- fluorescent signal ave (phospho-STAT5) (human GHR; 50 nM antibody + 4.5 nM GH): 0
- fluorescent signal ave (phospho-STAT5) (human GHR; 500 nM antibody + 4.5 nM GH): 0
- effect on GH-stimulated STAT5 signaling (human GHR; cells expressing human GHR, 4.5 nM GH): blocked STAT5 signaling in a dose-dependent manner
- fluorescent signal ave (phospho-STAT5) (cyno GHR; 2.5 nM antibody + 4.5 nM GH): 621
- fluorescent signal ave (phospho-STAT5) (cyno GHR; 5 nM antibody + 4.5 nM GH): 518
- fluorescent signal ave (phospho-STAT5) (cyno GHR; 50 nM antibody + 4.5 nM GH): 50
- fluorescent signal ave (phospho-STAT5) (cyno GHR; 500 nM antibody + 4.5 nM GH): 8
- effect on GH-stimulated STAT5 signaling (cyno GHR; cells expressing cyno GHR, 4.5 nM GH): blocked STAT5 signaling in a dose-dependent manner
